Consider four proteins from patent publication US7074595B2, “General means of labeling protein by using wheat embryo cell-free protein synthesis system” (CellFree Sciences Co., Ltd., priority 2000, dated 2006).

For orientation: Km means the concentration of substrate that gives half-maximal velocity.

Holding throughout (format): biochemical
Substrate in data set [1]: NC(=O)C1=CN([C@@H]2O[C@H](COP(=O)(O)OP(=O)(O)OC[C@H]3O[C@@H](n4cnc5c(N)ncnc54)[C@H](OP(=O)(O)O)[C@@H]3O)[C@@H](O)[C@H]2O)C=CC1
Put plainly: enzymatic properties of DHFR (Table 1): Michaelis constant and maximum velocity, Met-DHFR. The settings on record: other: Met-DHFR. The procedure: (§1) Purification of GFP and measurement of its activity by analysis of fluorescence spectrum using a fluorospectrophotometer were carried out in accordance with a method by Deschamps, et al. [Deschamps, J. R. et al., (1995) Protein Expression and Purification, 6, 555–558]. In the measurement of fluorescence spectrum, a fluorophotometer of type RF-5000 by Shimadzu was used. DHFR activity was measured by a method of Stanley, et al. [Methods. Enzymol. 18, 195–199 (1971)].
(§2) Then enzymatic properties of the selenomethionine-containing proteins purified as such were investigated biochemically. Fluorescence emission spectrum of a certain concentration of the purified GFP preparation shown in FIG. 2 excited at the wavelength of 395 nm was measured within a range of 410 nm to 600 nm and the result is shown in FIG. 3. As will be apparent from FIG. 3, there is no difference between the fluorescence emission spectra of GFP [(A) in FIG. 3] and selenomethionine GFP [(B) in FIG. 3]. Thus, the conclusion is that the change in GFP activity by substituting methionine residue with selenomethionine is not higher than the usual measurement sensitivity. […]

Substrate in data set [2]: NC(=O)C1=CN([C@@H]2O[C@H](COP(=O)(O)OP(=O)(O)OC[C@H]3O[C@@H](n4cnc5c(N)ncnc54)[C@H](OP(=O)(O)O)[C@@H]3O)[C@@H](O)[C@H]2O)C=CC1
Briefly: enzymatic properties of DHFR (Table 2): Michaelis constant and maximum velocity, Natural-Type DHFR. Conditions: other: Natural-Type DHFR. The procedure:
as §1
Then enzymatic properties of the purified heavy hydrogen-labeled DHFR were biochemically investigated by the same manner as in Example 1. As will be apparent from Table 2, both Vmax and Michaelis constant (Km) to NADPH which are parameters for enzymatic chemical property of natural-type DHFR and heavy hydrogen-labeled DHFR show no difference between both enzymes. Thus, it became clear that DHFR comprising heavy hydrogen-labeled amino acids maintained nearly the same enzymatic activity as the natural-type DHFR.

Substrate in data set [3]: NC(=O)C1=CN([C@@H]2O[C@H](COP(=O)(O)OP(=O)(O)OC[C@H]3O[C@@H](n4cnc5c(N)ncnc54)[C@H](OP(=O)(O)O)[C@@H]3O)[C@@H](O)[C@H]2O)C=CC1
Briefly: enzymatic properties of DHFR (Table 1): Michaelis constant and maximum velocity, SeMet-DHFR. The settings on record: other: SeMet-DHFR. The procedure:
as §1, §2

Substrate in data set [4]: NC(=O)C1=CN([C@@H]2O[C@H](COP(=O)(O)OP(=O)(O)OC[C@H]3O[C@@H](n4cnc5c(N)ncnc54)[C@H](OP(=O)(O)O)[C@@H]3O)[C@@H](O)[C@H]2O)C=CC1
Put plainly: enzymatic properties of DHFR (Table 2): Michaelis constant and maximum velocity, Heavy Hydrogen-Labeled DHFR. The settings on record: other: Heavy Hydrogen-Labeled DHFR. The procedure: as §1
With regard to the wheat embryo, that being contaminated with substantially no endosperm component prepared by the method mentioned in Example 1 was used. Preparation of an extract from wheat embryo was carried out by the exactly same method as Example 1 except that the solution for extraction and the solution used for gel filtration contained 20 kinds of heavy hydrogen-labeled L-amino acids instead of 20 kinds of selenomethionine-containing L-amino acids. Concentration of the prepared extract was adjusted to 170˜250 A260 nm (A260/A280=1.5).
Although the composition of the protein synthesis reaction solution is as same as that described in Example 1, it contains 20 kinds of heavy hydrogen-labeled L-amino acids instead of 20 kinds of selenomethionine-containing L-amino acids.
Then enzymatic properties of the purified heavy hydrogen-labeled DHFR were biochemically investigated by the same manner as in Example 1. […]

B1: dihydrofolate reductase (DHFR), natural-type methionine-containing (Met-DHFR) (Escherichia coli K-12) (protein)
chain: MISLIAALAVDRVIGMENAMPWNLPADLAWFKRNTLNKPVIMGRHTWESIGRPLPGRKNIILSSQPGTDDRVTWVKSVDEAIAACGDVPEIMVIGGGRVYEQFLPKAQKLYLTHIDAEVEGDTHFPDYEPDDWESVFSEFHDADAQNSHSYCFEILERR
notes: made in house; host or cells: wheat embryo extract cell-free protein synthesis (dialysis type)
B1: in data set [1], the Km was determined as 11.2 µM.

B2: dihydrofolate reductase (DHFR), Natural-Type DHFR (Escherichia coli K-12) (protein)
chain: B1 chain
notes: as for B1
For B2, the Km in data set [2] was 13.2 µM.

B3: dihydrofolate reductase (DHFR), selenomethionine-containing (SeMet-DHFR) (Escherichia coli K-12) (protein)
chain: B1 chain
notes: as for B1
As to B3, the Michaelis-Menten constant (Km) in data set [3] is 10.2 µM.

B4: dihydrofolate reductase (DHFR), Heavy Hydrogen-Labeled DHFR (20 kinds of heavy hydrogen-labeled L-amino acids) (Escherichia coli K-12) (protein)
chain: B1 chain
notes: as for B1
On to B4, for which the Km in data set [4] was 14.7 µM.
